Test results from the domain aggregation screens of Martell et al. (2025).

Test: soluble fraction after stress (log2 fold change); higher = more stays soluble; pooled small domains, quantitative proteomics
Settings: stress: 50 degC
In short: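 Pooled custom libraries of small protein domains were measured in a high-throughput format, with quantitative proteomics as the read-out. Each library was stressed at 50°C. Aggregation propensity is given as the base-two logarithm of the fold change in how much of each protein stays soluble after the stress. Higher values mean a larger share of the protein remains in solution.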

Sequence	soluble fraction (log2)
HMLFYSDLVRLISFAEATLGKNEFETWYMSHHQGMKYTEIAIALGISVRTVEDRIARTKNHFRKI	-0.494
HMLGAGFDSDLTARENIFLNGALLGHSRAVMRGYYDDIVNFAELHDFMDVPVKNFSSGMTSRLAFSIATIG	0.00802
HMLGARIAALRRQAGMNQGELAKKLGISPSTVGMYEQGRREPSAEMLVRLAEAFSVSTDFLLT	-4.95e-05
HMLGERIRRLRKEMGMSVTELARRVKTSPSYISEIEKGEKTPSLNLLVRIASELRTGIDYLTGL	-0.294
HMLGIGANVQKIAQERKISLKELSRRAGIPYTTIYNMVKRDSSRVSPENLQKLADALGVEIGKLYG	0.0652
HMLGSQQAYTDALRLTGLPVDIEVIESDRLPFLIPMRYSLDQHLIEVNVRYPDTRAIRVQQMVEELFHA	-0.624
HMLGVKKFGGEAVIAGNIILRQRGTKWITGSNVGIGKDHTLFAKIEGYVVFERMRGRDGQQQISIYP	-0.101
HMLGYQALASAFRSKVEAGIWPIGEAIPSEARLSKEYGVAVGTIRQAIAELAEEGILIKRHGKSTMVSSG	-0.873
HMLHEFSGVVVSILADTGPSTLKQLHRSLISSDVKMDEKELMQILDEALSSGSVTSHRKGRYLYYSANK	-0.58
HMLHIKKGDTVIVNAGESKGQQGKVLEVLVGKERAIVEGVNMVSKHTKPNAKNPQGGIVKKEAPIHISNLQ	0.179
HMLHPLLWAVDEPTPVTVRTRPEYVPDVVRWLMQPESQREHDGVVDLRYTVTHRAAFRSRIYVLGTRVTIP	-0.112
HMLIADADSLRKQIETVLANAPNEVAAYRGGKETLMGWFVGQIMRATGGKADPKLTREILAELLQ	0.00102
HMLIADSDALRSQIESILNGNPNEVASFRAGKESLMGWFVGQVMRSTGGKADPKRTRELLQELLTK	-0.102
HMLIDSEILKKTNKITIFLIYAFFSEYLINKEKKKILIGEYIKLSKDFLTIEEVKYFNHLLDDISK	0.0074
HMLIDSNNYFFYKVKPKEGFYSLQKKLGVNRSEIEKHNPSLINEVLKEGMILKIPKYLLNFDLN	-0.297
HMLILTWNYPYEYPMMMRSFLQEIGISRTFLAHIKSNGELLINGRHEIVLKTLQPGDVLTMVIPPSG	-1.71
HMLINLGPRIRKERRSKGISQSDFSKNLGISASYLNLLENGRRTLTVPLLIKIGNELNLSLKDL	-0.0339
HMLISAESVKRRLEMIRHLILLGDYEDVTAQVIKLNPAANEYKLTPIIEELNGGKYQEALEKINSYLSKF	0.0802
HMLISKNLLGFTIKNTSGVTFGTLKDIMWLPSNDVYVIDNNGKEYLIPVISEIVKSINYDKGSITIFP	-0.352

Sequence	soluble fraction (log2)
HMLKASEVLPYVFTDKFFIDDLNLKQDQILGFLEYIDSKLPSQKLLQVSQQFQLIDFLINESKNYKNQ	-0.382
HMLKDININVTGLDQISNAKLINNLNLLKMNNLFFLDEKKIKKILNSNNLIEKFFIFKKYPSTLDIKVYKT	-0.0369
HMLKHNLLSELSRIEGVGAVKRKALMDKFGTVENIKRASEEELSEVAGIGPTLARTIKEQMNKDE	-0.184
HMLKKRKPMSGVGVIVKGMLTGTVTGTDGSYALKARPNDELSFSFLGYKTQEVFVGSKSTIDITLVDEA	-0.13
HMLKLEEIQPNATVRGILPDALITVVNVKWFGSEALELTYKDTSGRVANQLLFRDDQPRLEIVE	-0.538
HMLKLEPYTINEINSLQELYDLGNVRALETLISIYKDKNQVYDTRFYVLDILSKYDNPLIQEALEESITN	-1.78
HMLKLPVEYLNLKYQLMHATSLDKPNNLMKLDEKLGKIIDVYYDDLPVDEQRVVDILQSKLYSY	-0.996
HMLKLYILTDGKNYVMDDPIHPGRVMYSTSPVNAKKFTFKQARALLNNKSKKLSWIRSFNMVDDSSGEKI	-0.692
HMLKREDEVIVVAGKDKGKRGTITQLVGDDRVIVAGVNMVKRHTKPNPNLGQPGGIVEREASLHISNV	0.296
HMLKVHPRDQEENRLLLLKGERLYEESTGDTRVMIDMWLRKFEEALNSRSRENIEDARRELKEQLAELDN	-0.00144
HMLLAPLRLGAAPDIKAQAPLATILARHNGEMEAKDLWQRFGGEIDAFYLQLKTEVAHGWIVEPEPA	-0.816
HMLLELINLQVKILENEELKIIGKVIDLENEKNNLLVIELLKDQKKVLVPFVKEIVPLIDIKNNFIMINPP	-0.897
HMLLFNVADIVKRAKRVLNFKTDAELAAYLGVSRPTLSNWIARNGIDFPLLLEKLKEIDYNWLLVGKGKPE	-2.33
HMLLGPDALTNRELDVLALLERRLSNKEIGALLYISPRTVKRHTINIYQKLHVNNRRAAVAQAKALGLMPD	-1.79
HMLLKIRPDLDGNEIMKLLNIAAGPNVGKAYEHLLELRLEHGPLGKERAEQELMNWWSARSQ	-1.09
HMLLNSLIDTLAAEKATVVPGTEVFKLYDTYGFPWELTEEIASERGFTIDHEGFEAAMKEQRERAREARV	-0.0257
HMLLNTSQLKELYNRYDKKNSSLISIPFSAISDEPLKFYKWYAALFQIELNVKAFADVDSKQIIIYKGTK	-2.51
HMLLRSEDAIELGKSQLEDALAPYKIETLDTGTVQQLLDSLKLNSLESLYQEIGLGNRMSTIIAHRLLGE	-0.156
HMLLSFYGTYGNVKLTGKELEDLQKEFPFDYQARIDRLSAYMESSGRKYHSHFATIRSWAQDDAKKN	-1.79
